The data set concerns the molecule itself. The experiment in a line: thioflavin T fluorescence + AFM (de novo amyloid fibril formation).

These results are taken from paper PMC2442654 (PLoS ONE, 2008).

B1: recombinant mouse full-length prion protein, MoPrP (23-231), unexposed (natural protein)
chain: not shown
For B1, the binding result is given as “binds”.
